For one molecule, Kd results are on record in patent US20150299305A1.

What all share (assay): SPR, antibody immobilized, monomeric FcγR injected, steady state, pH 7.4; SPR, monomeric FcγR
(In general: SPR reads the build-up and loss of mass on a sensor chip optically.)

The target of test [1] is Human FcγRI (CD64) (human) (UniProt P12314).
Test [2] concerns the target Human FcγRIIIb (CD16b) (human) (UniProt O75015).
Test [3] concerns the target Human FcγRIIIa (CD16a) (human) (UniProt P08637).

Human FcγRIIIa (CD16a) (human), sequence (P08637 17-208 limits assumed): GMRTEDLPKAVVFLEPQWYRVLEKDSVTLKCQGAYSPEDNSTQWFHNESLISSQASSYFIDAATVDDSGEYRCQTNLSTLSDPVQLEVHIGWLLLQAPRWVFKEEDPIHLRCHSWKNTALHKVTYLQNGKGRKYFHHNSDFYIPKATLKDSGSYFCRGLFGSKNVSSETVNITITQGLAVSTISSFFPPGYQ
Human FcγRIIIb (CD16b) (human), sequence (O75015 17-200 limits assumed): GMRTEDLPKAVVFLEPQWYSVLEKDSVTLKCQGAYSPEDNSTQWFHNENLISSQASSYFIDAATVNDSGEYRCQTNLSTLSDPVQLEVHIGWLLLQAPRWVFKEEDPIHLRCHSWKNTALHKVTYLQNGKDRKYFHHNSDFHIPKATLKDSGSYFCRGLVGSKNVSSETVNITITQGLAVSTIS
Human FcγRI (CD64) (human), sequence (P12314 16-288 limits assumed): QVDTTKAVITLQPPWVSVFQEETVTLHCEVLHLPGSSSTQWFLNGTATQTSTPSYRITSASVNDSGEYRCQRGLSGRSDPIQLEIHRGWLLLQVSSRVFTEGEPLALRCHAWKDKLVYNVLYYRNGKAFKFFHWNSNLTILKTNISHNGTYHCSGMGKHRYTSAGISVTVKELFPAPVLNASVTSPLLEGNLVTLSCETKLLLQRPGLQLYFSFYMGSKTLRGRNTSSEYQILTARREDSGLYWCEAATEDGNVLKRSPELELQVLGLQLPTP

B1: eculizumab (antibody, human IgG2, kappa)
heavy: QVQLVQSGAEVKKPGASVKVSCKASGYIFSNYWIQWVRQAPGQGLEWMGEILPGSGSTEYTENFKDRVTMTRDTSTSTVYMELSSLRSEDTAVYYCARYFFGSSPNWYFDVWGQGTLVTVSSASTKGPSVFPLAPCSRSTSESTAALGCLVKDYFPEPVTVSWNSGALTSGVHTFPAVLQSSGLYSLSSVVTVPSSNFGTQTYTCNVDHKPSNTKVDKTVERKCCVECPPCPAPPVAGPSVFLFPPKPKDTLMISRTPEVTCVVVDVSQEDPEVQFNWYVDGVEVHNAKTKPREEQFNSTYRVVSVLTVLHQDWLNGKEYKCKVSNKGLPSSIEKTISKAKGQPREPQVYTLPPSQEEMTKNQVSLTCLVKGFYPSDIAVEWESNGQPENNYKTTPPVLDSDGSFFLYSRLTVDKSRWQEGNVFSCSVMHEALHNHYTQKSLSLSLGK
light: DIQMTQSPSSLSASVGDRVTITCGASENIYGALNWYQQKPGKAPKLLIYGATNLADGVPSRFSGSGSGTDFTLTISSLQPEDFATYYCQNVLNTPLTFGQGTKVEIKRTVAAPSVFIFPPSDEQLKSGTASVVCLLNNFYPREAKVQWKVDNALQSGNSQESVTEQDSKDSTYSLSSTLTLSKADYEKHKVYACEVTHQGLSSPVTKSFNRGEC
With B1, the results for the dissociation constant Kd in test [1], in test [2] and in test [3] were 3.78 µM, 3.49 µM and 6.78 µM, respectively.
